Source: patent US9364516B2, “Treatment of fibrosis-related disorders using fibronectin binding proteins and polypeptides” (priority 2010, dated 2016)

Experiments:
[1] = system: left carotid artery of FVB mice; test: Carotid ligation model, quantitative immunohistochemistry; assay type: in vivo, mouse
Protocol: Sections selected from the first millimeter of the carotid artery in each group were used for immunohistochemistry (IHC). Endogenous peroxidase activity was blocked with 3% H2O2, followed by incubation with Dako serum-free blocking solution (Dako; Glostrup, Denmark). The primary antibodies used were: polyclonal anti-fibronectin (Chemicon/Millipore, Billerica, Mass.), polyclonal anti-collagen type I (LF-67; a gift from Dr. Fisher, NIH, Bethesda, Md.), monoclonal anti-proliferating cell nuclear antigen (PCNA) (Sigma, St. Louis, Mo.), polyclonal anti-smooth muscle myosin heavy chain (SMMHC) (Biomedical Technologies Inc., Stoughton, Mass.), monoclonal smooth muscle-actin (SM-actin) (Dako), anti-leukocyte common antigen, CD45 (BD Pharmingen, San Jose, Calif.), monoclonal anti-intercellular adhesion molecule-1 (ICAM-1) (BD Pharmingen), and polyclonal anti-vascular cell adhesion molecule-1 (VCAM-1) (Santa Cruz Biotechnology, Santa Cruz, Calif.). Antigen retrieval for anti-fibronectin and anti-collagen type I antibodies was performed by incubating sections with proteinase K in 0.05M Tris-HCL buffer. Antigen retrieval for CD 45 antibody was performed by incubating sections with 10 mM citrate buffer (pH=6) at 120° C. Sections were then incubated with appropriate biotinylated secondary antibodies followed by avidin-biotin immunoperoxidase system (Vector Laboratories, Burlingame, Calif.). Liquid DAB Substrate Chromogen system (Dako) or Vector Red (Vector) was used for detection. PCNA, CD45, ICAM-1, and VCAM-1-immunostained sections were counterstained with hematoxylin.
Quantitative IHC analysis was performed using Image-Pro Plus software. Data from 3-5 mice were averaged, and the average values ±s.e.m. determined. For fibronectin, collagen type I, SMMHC, and SMα-actin, color digital images were captured using a 40× objective and transformed into gray scale. Sixteen fields of view of equal size per section in the media or adventitia were randomly chosen, and the mean of the optical densities from the sixteen fields of view was determined. Three sections were analyzed per animal. For quantitative comparison of leukocyte infiltration and cell adhesion molecule expression, images were acquired using a 60× objective. The CD45, ICAM-1, and VCAM-1-positive areas were obtained using an automated programmed segmentation procedure in ImagePro. The intima plus media or adventitial regions were traced manually. The percent of the positively stained area to the total traced area was determined. For evaluation of proliferating cells, the percent of PCNA (+) cells to total cells was determined by counting cell numbers in PCNA-stained sections that had been counterstained with hematoxylin. The percent positive cells is reported as the proliferation index. To determine the SMC density, sections were stained with hematoxylin, and cells present in the media were counted. The data is expressed as number of cells/μm^2.
Blood flow in the left carotid artery of 10-week-old FVB/NJ (FVB) mice was reduced by ligating the external and internal carotid arterial branches as described (Korshunov et al., “Flow-Induced Vascular Remodeling in the Mouse: A Model for Carotid Intima-Media Thickening,” Arterioscler. Thromb. Vasc. Biol. 23:2185-2191 (2003), which is hereby incorporated by reference in its entirety). Mice were anesthetized with an intraperitoneal injection of ketamine (80 mg/kg) and xylazine (5 mg/kg) as described in the above-cited referenced. The left common carotid artery was dissected free of the surrounding connective tissue and 50 μL of F-127 pluronic gel (BASF) containing 20 μmol/L pUR4 or III-11C was applied around the carotid artery. […]

mice = test: Dimethylnitrosamine (DMN) induced liver fibrosis; assay type: in vivo, mouse
Protocol: Collagen content in the liver of mice was measured by quantitating hydroxyproline levels (FIG. 17A). Treatment groups were DMN treated mice that were post treated with pUR4 or control III-11C peptide, DMN without peptide, and saline treated control mice. Fibronectin content in the liver of mice was assessed by immunohistochemistry of liver sections using a fibronectin antibody (FIG. 17B). Inflammatory cell infiltration into the liver was assessed by quantitating the CD45 positive cells per unit area (FIG. 17C). Sequential model (FIGS. 17A, 17B); Simultaneous model (FIG. 17C). n=3 in each group.
Liver fibrosis was induced in mice by administration of dimethylnitrosamine (DMN) for 4 weeks as previously described (Yoshida et al., “SOCS1 is a Suppressor of Liver Fibrosis and Hepatitis-Induced Carcinogenesis,” J. Exp. Med. 199:1701-1707 (2004)). This is a well established model of liver fibrosis and some of the key pathological features that develop in DMN induced fibrosis are similar to those seen in humans with liver fibrosis (Wu et al., “Animal Models of Liver Fibrosis,” Scand. J. Gastroenterol. 31:1137-1143 (1996); Jenkins et al., “A Dimethylnitrosamine-Induced Model of Cirrhosis and Portal Hypertension in the Rat,” J. Hepatol. 1:489-499 (1985), which are hereby incorporated by reference in their entirety). pUR4 was either administered for the last 10 days of DMN treatment (simultaneous treatment regimen), or for 14 days following cessation of DMN treatment (sequential treatment regimen). The latter model was performed to determine whether the peptide is effective when administered after fibrosis is established.
Dimethylnitrosamine (DMN) will be used to induce liver injury and fibrosis in mice (10 mg/kg body weight, 3×/week for 4 weeks) as described in Example 16. The experimental groups will include: 1) DMN alone; 2) DMN+pUR4 peptide; and 3) DMN+control peptide. Non DMN-treated control animals will receive i.p. injections of 0.9% saline plus: 4) pUR4; or 5) the control peptide. Two treatment strategies will be used, as described in Example 16. In the simultaneous treatment strategy, peptides will be administered daily during the last 10 days of DMN treatment. This will allow assessment of pUR4 on preventing fibrosis development. In the sequential treatment strategy, DMN will be injected for 4 weeks. Peptides will then be administered daily for 14 days in the absence of DMN. This will allow assessment of pUR4 on preventing fibrosis progression.

[2] = animals treated in the absence of injury for up to 2 weeks
[3] = sequential treatment: 14 days following cessation of DMN, 20 mg/kg/d

B1: pUR4: 49-mer peptide derived from the bacterial F1 adhesin, His tagged, SEQ ID NO:1; class I fibronectin polymerization inhibitor (peptide)
chain: MRGSHHHHHHGSKDQSPLAGESGETEYITEVYGNQQNPVDIDKKLPNETGFSGNMVETEDTKLN
modifications: His tag; Bacterial adhesin derived peptide pUR4
With B1 as the molecule, how does the “accumulation of collagen I and fibronectin in the media and adventitia” value ([1]; 7 and 14 days after surgery, vs control animals) read?
The value was “dramatic reduction”.

What about the “SMC dedifferentiation (SM α-actin and SM myosin heavy chain staining in the media)” value ([1]; 7 days after ligation) of the same molecule?
Its value is “prevented”.

What about the “adhesion molecule expression (ICAM-1 and VCAM-1 levels in the vessel wall)” value ([1]; 7 days after ligation) of the same molecule?
Its value is “dramatic decrease”.

What about the “decrease of leukocyte (CD45) infiltration into the intima, media, and adventitia” value ([1]; 7 days after surgery) of the same molecule?
Its value is 80%.

What about the increased fibronectin deposition ([1]; 7 days after surgery) of the same molecule?
Its increased fibronectin deposition is “totally prevented”.

What about the “prevention of increase in cell density in the media” value ([1]; 7 days after surgery) of the same molecule?
Its value is 75%.

And the “cell density in the media” value ([1]; 7 days after surgery, ligated 6.7×10^−3, sham 5.0×10^−3)?
Its value is 5.3×10^−3 cells/mm^2.

And the “reduction in cell proliferation (PCNA) in the adventitia” value ([1]; 7 days post ligation)?
Its value is 61%.

What about the “reduction in cell proliferation (PCNA) in the intima-media” value ([1]; 7 days post ligation) of the same molecule?
The value was 70%.

And the “fibronectin and collagen levels vs control peptide-treated animals” value ([1]; 14 days after surgery)?
Its value is “still decreased”.

And the adverse effects (mice; [2])?
The adverse effects was “do not show any adverse effects”.

What about the “decrease in the normal levels of ECM fibronectin or collagen I” value (mice; [2]) of the same molecule?
The value was “do not show”.

And the “inflammation in the liver” value (mice; sequential treatment model)?
The value was “trend towards reduced”.

And the “collagen I content in the liver (hydroxyproline)” value (mice; [3])?
Its value is “reduced”.

What about the “fibronectin content in the liver” value (mice; [3]) of the same molecule?
Its value is “reduced”.

What about the “infiltration of immune cells (CD45) into the liver” value (mice; simultaneous treatment regimen) of the same molecule?
Its value is “significantly reduced”.
